Measurements reported in patent publication US20230227537A1.
Several values for one entry are separate records, joined by “and”; a condition that tells them apart may be missing. Equal values may be shown once.

Target: Mouse IgG1 Fc fused SARS-CoV-2 RBD (Sino Biological) (SARS-CoV-2; mouse), P0DTC2
Details: remark: other sources report otherwise

B1: VHH72_S56A-Fc (P. pastoris) (Fc fusion)
chain: QVQLQESGGGLVQAGGSLRLSCAASGRTFSEYAMGWFRQAPGKEREFVATISWSGGATYYTDSVKGRFTISRDNAKNTVYLQMNSLKPDDTAVYYCAAAGLGTVVSEWDYDYDYWGQGTQVTVSS
B1 was tested, and the % Signal decrease over 8 min dissociation was 6% and 7%, the Kd was 49.6 pM and 54.1 pM and the koff was 0.000123 s⁻¹ and 0.000146 s⁻¹. For the same binder, the kon was 2.48e+06 M⁻¹ s⁻¹ and 2.69e+06 M⁻¹ s⁻¹.
